B1: chimeric sp34 (ch-sp34) (antibody, V domains shown)
VH: EVQLVESGGGLVQPKGSLKLSCAASGFTFNTYAMNWVRQAPGKGLEWVARIRSKYNNYATYYADSVKDRFTISRDDSQSILYLQMNNLKTEDTAMYYCVRHGNFGNSYVSWFAYWGQGTLVTVSS
VL: QAVVTQESALTTSPGETVTLTCRSSTGAVTTSNYANWVQEKPDHLFTGLIGGTNKRAPGVPARFSGSLIGDKAALTITGAQTEDEAIYFCALWYSNLWVFGGGTKLTVL
B2: humanized sp34 BG53P (antibody, V domains shown)
VH: EVQLVESGGGLVQPGGSLRLSCAASGFTFNTYAMNWVRQAPGKGLEWVARIRSKYNNYATYYADSVKDRFTISRDDAKSSLYLQMNSLRAEDTAMYYCVRHGNFGNSYVSWFAYWGQGTLVTVSS
VL: QAVVTQSPATLSVSPGERATLSCRSSTGAVTTSNYANWVQEKPGQLFTGLIGGTNKRAPGIPARFSGSLSGDEATLTISSLQSEDFAIYFCALWYSNLWVFGGGTKVEIK
B3: humanized sp34 BG56P (antibody, V domains shown)
VH: EVQLVESGGGLVQPGGSLRLSCAASGFTFNTYAMNWVRQAPGKGLEWVARIRSKYNNYATYYADSVKDRFTISRDDAKNSLYLQMNSLRAEDTAVYYCVRHGNFGNSYVSWFAYWGQGTLVTVSS
VL: EIVLTQSPATLSVSPGERATLSCRSSTGAVTTSNYANWVQQKPGQAPRGLIGGTNKRAPGIPARFSGSLSGDEATLTISSLQSEDFAVYYCALWYSNLWVFGGGTKVEIK
B4: humanized sp34 scFv BG561P (scFv-Fc) (Fc fusion, not shown: a dimerising Fc or GST)
scFv: EVQLVESGGGLVQPGGSLRLSCAASGFTFNTYAMNWVRQAPGKGLEWVARIRSKYNNYATYYADSVKDRFTISRDDAKNSLYLQMNSLRAEDTAVYYCVRHGNFGNSYVSWFAYWGQGTLVTVSSGGGGSGGGGSGGGGSEIVLTQSPATLSVSPGERATLSCRSSTGAVTTSNYANWVQQKPGQAPRGLIGGTNKRAPGIPARFSGSLSGDEATLTISSLQSEDFAVYYCALWYSNLWVFGGGTKVEIK

Tests used:
[1] = target: CD3ε/δ (SPR analyte) (UniProt P07766); assay: SPR, antibody captured by anti-human Fc
CD3ε/δ (SPR analyte), sequence (P07766 23-126, stated change not applied, chain 1 of 2): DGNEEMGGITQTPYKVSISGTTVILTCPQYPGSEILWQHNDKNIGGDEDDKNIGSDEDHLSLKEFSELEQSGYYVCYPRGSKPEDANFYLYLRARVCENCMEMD
CD3ε/δ (SPR analyte), sequence (P04234 22-105, stated change not applied, chain 2 of 2, further chain): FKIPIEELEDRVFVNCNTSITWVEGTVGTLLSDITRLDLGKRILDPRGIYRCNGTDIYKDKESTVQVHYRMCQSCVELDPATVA

[2] = target: CD3ε/δ (SPR analyte) (UniProt P07766); assay: SPR, antibody captured by anti-human Fc; remark: listed apart in the source
[3] = target: CD3ε/δ (SPR analyte) (UniProt P07766); assay: SPR

Binder	Kd [1] [nM]	koff [1] [s⁻¹]	kon [1] [M⁻¹ s⁻¹]	Kd [2] [nM]	koff [2] [s⁻¹]	kon [2] [M⁻¹ s⁻¹]	Kd [3] [nM]	koff [3] [s⁻¹]	kon [3] [M⁻¹ s⁻¹]
B1	27.1	0.00296	109000	–	–	–	–	–	–
B2	25.4	0.00252	99300	9.62	0.00105	109000	–	–	–
B3	–	–	–	18.2	0.00112	61600	18.2	0.00112	61600
B4	–	–	–	–	–	–	25.9	0.00188	72500
